B1: 17D20mc: mother scFv clone, fully human MASP-2 antibody from phage display (TABLE 8, "all in scFv format") (protein)
scFv: QVTLKESGPVLVKPTETLTLTCTVSGFSLSRGKMGVSWIRQPPGKALEWLAHIFSSDEKSYRTSLKSRLTISKDTSKNQVVLTMTNMDPVDTATYYCARIRAGGIDYWGQGTLVTVSSKLSGSASAPKLEEGEFSEARVQPVLTQPPSVSVSPGQTASITCSGDKLGDKFAYWYQQKPGHSPVLVIYQDNKRPSGIPGRFSGSNSGNTATLTISGTQAMDEADYYCQAWDSSTAVFGTGTKVTVLAAAGSEQKLISEEDLNSHHHHHH
B2: 17N16mc: mother scFv clone, fully human MASP-2 antibody from phage display (TABLE 8, "all in scFv format") (protein)
scFv: QVQLQQSGPGLVKPSQTLSLTCAISGDSVSSTSAAWNWIRQSPSRGLEWLGRTYYRSKWYNDYAVSVKSRITINPDTSKNQFSLQLNSVTPEDTAVYYCARDPFGVPFDIWGQGTMVTVSSKLSGSASAPKLEEGEFSEARVSYVLTQPPSVSVAPGQTARITCGGNNIGSKNVHWYQQKPGQAPVLVVYDDSDRPSGIPERFSGSNSGNTATLTVSRVEAGDEADYYCQVWDTTTDHVVFGGGTKLTVLAAAGSEQKLISEEDLNSHHHHHH

Target: human MASP-2 (Homo sapiens (Human), UniProt O00187)
Sequence (O00187 whole entry, looked up): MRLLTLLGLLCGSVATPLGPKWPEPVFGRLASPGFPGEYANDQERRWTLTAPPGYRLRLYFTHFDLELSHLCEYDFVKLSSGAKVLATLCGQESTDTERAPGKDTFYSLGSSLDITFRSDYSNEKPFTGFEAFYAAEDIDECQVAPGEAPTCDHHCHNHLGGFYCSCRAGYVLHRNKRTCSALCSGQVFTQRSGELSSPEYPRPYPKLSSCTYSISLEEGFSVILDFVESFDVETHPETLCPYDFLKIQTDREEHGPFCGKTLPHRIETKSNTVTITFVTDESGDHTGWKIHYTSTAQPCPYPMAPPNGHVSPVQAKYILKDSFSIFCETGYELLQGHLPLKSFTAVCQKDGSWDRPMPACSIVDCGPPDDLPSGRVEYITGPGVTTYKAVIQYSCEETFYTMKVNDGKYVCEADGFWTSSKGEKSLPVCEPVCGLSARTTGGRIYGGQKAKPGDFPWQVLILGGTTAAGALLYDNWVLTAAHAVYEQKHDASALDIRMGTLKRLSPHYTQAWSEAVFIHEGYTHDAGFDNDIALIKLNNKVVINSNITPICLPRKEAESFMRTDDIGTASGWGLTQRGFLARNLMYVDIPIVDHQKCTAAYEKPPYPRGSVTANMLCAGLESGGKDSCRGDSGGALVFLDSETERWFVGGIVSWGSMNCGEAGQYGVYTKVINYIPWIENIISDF
Assay: C3 assay: inhibition of lectin pathway C3 convertase formation in human serum (scFv clones)
Format: biochemical
Conditions: read-out: 1% human serum C3 assay (IC50 nM), scFv format
Source text: A functional assay that measures inhibition of lectin pathway C3 convertase formation was used to evaluate the “blocking activity” of the MASP-2 scFv candidate clones. MASP-2 serine protease activity is required in order to generate the two protein components (C4b, C2a) that comprise the lectin pathway C3 convertase. Therefore, a MASP-2 scFv that inhibits MASP-2 functional activity (i.e., a blocking MASP-2 scFv), will inhibit de novo formation of lectin pathway C3 convertase. […]
The scFv clones were each tested in triplicate at the concentration of 2 μg/mL. […] C3c formation was monitored in the presence and absence of the scFv/IgG clones. […]
Normal human serum was diluted to 0.5% in CaMgGVB buffer, and scFv clones or the OMS100 Fab2 positive control were added in triplicates at 0.01 μg/mL; 1 μg/mL (only OMS100 control) and 10 μg/mL to this buffer and preincubated 45 minutes on ice before addition to the blocked ELISA plate. […] C3b deposition was detected with a Rabbit α-Mouse C3c antibody followed by Goat α-Rabbit H1RP. […] The background was determined by carrying out the same assay except that the wells were mannan-free. […]

Row | Molecule | IC50 [nM]
1 | B1 | 38
2 | B2 | 68
